In patent US20170015742A1 (published 2017):
Positions count from the first letter of the chain named. Several values for one entry are separate records, joined by “and”; a condition that tells them apart may be missing. Equal entries are not always repeated.

B1: hBFU-3E2.1 (antibody, V domains shown)
VH: EVQLVQSGAEVKKPGSSVKVSCKASGYTFTESYMYWVKQAPGQGLELIGRIDPEDGSTDYVEKFKNKATLTADKSTSTAYMELSSLRSEDTAVYFCARFGARSYFYPMDAWGQGTTVTVSS
VL: ETVLTQSPATLSLSPGERATLSCRASESVSTLMHWYQQKPGQQPRLLIYGASNLESGVPARFSGSGSGTDFTLTISSLEPEDFAVYFCQQSWNDPWTFGGGTKVEIK
B2: hBFU-3E2.2 (antibody, V domains shown)
VH: B1 VH with K38R, K67R, A68V, F95Y
VL: B1 VL
B3: hBFU-3E2.4 (antibody, V domains shown)
VH: B1 VH with K38R, K67R, A68V, F95Y
VL: ATQLTQSPSSLSASVGDRVTISCRASESVSTLMHWYQQKPGKQPRLLIYGASNLESGVPSRFSGSGSGTDFTLTISSLQPEDFATYFCQQSWNDPWTFGGGTKVEIK
B4: hBFU-3E2.3 (antibody, V domains shown)
VH: B1 VH
VL: B3 VL
B5: BEW-10H2-B9 (antibody, IgG2b, V domains shown)
VH: QIQLVQSGPELKKPGESVKISCKASGYSFTNFGLYWVKQAPGQGLQYMGWIDTETGKPTYADDFRGRFVFFLETSASTAYLQINNLKNEDMATYFCARVYGYPSWYFDFWGPGTMVTVSS
VL: DIQMTQSPASLSTSLEEIVTITCQASQDIDNYLSWYQQKPGKSPQLLIHSATSLADGVPSRFSGSRSGTQFSLKIHRLQVEDTGIYYCLQHFFPPWTFGGGTKLELK
B6: BEW-6C2-C8 (antibody, IgG2b, V domains shown)
VH: EVQLVESGGGLVQPGSSLKLSCAASGFTFSYYGMHWIRQAPKKGLEWMALIYYDSSKMYYADSVKGRFTISRDNSKNTLYLEMNSLRSEDTAMYYCAAGGTAPVYWGQGVMVTVSS
VL: NIQLTQSPSLLSASVGDRVTLSCKGSQNIANYLAWYQQKLGEAPKLLIYNTDSLQTGIPSRFSGSGSGTDYTLTISSLQPEDVATYFCYQSNNGYTFGAGTKLELR
B7: BEW-8E6-E4 (antibody, IgG2a, V domains shown)
VH: QIQLVQSGPELKKPGESVKISCKASGYTFTDYAMHWVKQAPGKVLKWMGWINTFTGKPTYIDDFKGRFVFSLEASASTANLQISDLKNEDTATYFCARGNYYSGYWYFDFWGPGTMVTMSS
VL: DIQMTQSPASLSASLGETISIECRASEDISSNLAWYQQKSGKSPQLLIFAANRLQDGVPSRFSGSGSGTQFSLKISGMQPEDEGDYFCLQGSKFYTFGAGTKLELK
B8: BDB-4G8-D4 (antibody, IgG2b, V domains shown)
VH: QIQLVQSGPELKKPGESVKISCKASGYTFTNYGMYWVKQAPGQGLQYMGWINTETGKPTYADDFKGRFVFFLETSASTAYLQINNLKNEDMATYFCARTNYYYRSYIFYFDYWGQGTMVTVSS
VL: DTVLTQSPALAVSPGERVSISCRASESVSTHMHWYQQKPGQQPKLLIYGASNLESGVPARFSGSGSGTDFTLTIDPVEADDTATYFCQQSWNDPFTFGAVTKLELK
B9: BED-4G10-C8 (antibody, IgG2b, V domains shown)
VH: QVQLQQSGTELVKPGSSVKISCKASGYTFTSNYMHWIRQQPGNGLEWIGWIYPGDGDTNYNHNFNGKATLTADKSSSTAYMQLSSLTSEDFAVYFCASSTRAIPGWFTYWGQGTLVTVSS
VL: B8 VL with R23W, H31L, P39L, S62R, N92S, F95Y, V100G
B10: BEW-9A8-E2 (antibody, IgG2a, V domains shown)
VH: QIQLVQSGPELKKPGESVKISCKASGYTFTNYGMYWVKQAPGQGLQYMGWINTETGKPIYADDFKGRFVFFLETSASTAYLQINNLKNEDMATFFCARVDYDGSFWFAYWGQGTLVTVSS
VL: B8 VL with H31V, M32I, Y48H, S90H, F95P, V100G, L105M
B11: BEW-3A1-D10-G9 (antibody, IgG2b, V domains shown)
VH: QVQLEQSGAELVKPGTSVKLSCMASGYTSSSNHMNWMKQTTGQGLEWIGIINPGSGGTRYNVKFEGKATLTVDKSSSTAFMQLNSLTPEDSAVYYCARAGFPGPFSYYAMGAWGQGTSVTVSS
VL: DIQMTQSPPVLSASVGDRVTLSCKASQNIHNNLDWYQQKHGEAPKLLIFYTNNLQTGIPSRFSGSGSGTDYTLTISSLQPEDVATYYCYQYNSGYTFGAGTKLELK
B12: BEW-1B10-B9-C3 (antibody, IgG2a, V domains shown)
VH: EVQLVESGGGLVQPGRSLKLSCAASGFSFSKYDMAWFRQTPTKGLEWVASITTSGVGTYYRDSVKGRFTVSRDNAKSTLYLQMDSLRSEDTATYYCARGYGAMDAWGQGTSVTVSS
VL: DIQMTQSPASLSASLEEIVTITCKASQDIDDYLSWYQQKPGKSPQLVIYAATRLADGVPSRFSGSGSGTQYSLKISRLQVDDSGIYYCLQSSSTPWTFGGGTNLELK
B13: BEW-9C2-D6 (antibody, IgG2b, V domains shown)
VH: QIQLVQSGPELKKPGESVKVSCKASGYTFTNYGIHWVKQAPGQGLQYVGWINTETGRPTYADDFKGRFVFFLETSASTAYLQINNLKNEDMATYFCARPLYYGYAHYFDYWGQGVMVTVSS
VL: DIQMTQSPASLSASLEEIVTITCQASQDIGNWLAWYQQKPGKSPQLLIYGATSLADGVPSRFSGSRSGTQYSLKISRLQVEDIGIYYCQQASSVTYTFGAGTKLELK
B14: BEW-9D2-E8 (antibody, IgG2a, V domains shown)
VH: QIQLVQSGPELKKPGESVKISCKASGYTFTNYGMYWVKLAPGQGLQYLGWINTETGKPTYADDFKGRFVFFLETSASTAYLQINNLRNEDMATYFCARPSDYYDGFWFAYWGQGTLVTVSS
VL: DTVLTQSPALTVSPGERVSISCRASEWVNSYMHWYQQNPGQQPKLLIYKASNLASGVPARFSGSGSGTDFTLTLDPVEADDTATYFCQQSWNDPLTFGSGTKLEIK
B15: BEW-9E7-B4 (antibody, IgG2b, V domains shown)
VH: QIQLVQSGPELKKPGESVKISCKASGYTFTNYGMYWVKQAPGQGLQYMGWIDTETGKPTYADDFKGRFVFFLETSASTAYLQINNLRNEDMATYFCARWGYTSDYYYGWFPDWGQGTLVTVST
VL: B14 VL with T11A, W27G, T73N, L74I, D75H, S90N, D93V
B16: BEW-1E3-D6 (antibody, IgG2b, V domains shown)
VH: QIQLVQSGPELKKPGESVKISCKASGYPFTNSGMYWVKQAPGQGLQYMGWINTEAGKPTYADDFKGRFVFFLETSASTAYLQINNLKNEDMATYFCARWGYISDNSYGWFDYWGQGTLVTVSS
VL: B14 VL with T11A, W27G, N29Y, L74I, Q88H, S90N
B17: BEW-9E3-B9 (antibody, IgG2a, V domains shown)
VH: B14 VH with L39Q, L48M, Y80F, R87K, A109P, T115A
VL: B14 VL with V3I, T11A, V18I, W27G, L74I
B18: BEW-5C3-E7 (antibody, IgG2b, V domains shown)
VH: QIQLVQSGPELKKPGESVKISCKASGYTFTNYGVYWVKQAPGQGLQYMGWINTETGKPTYADDFKGRFVFFLETSTNTAYLQINNLKNEDMATFFCARARQLDWFVYWGQGTLVTVSS
VL: DTVLTQSPALTVSPGERVSISCRARESLTTSLCWFQQKPGQQPKLLIYGASKLESGVPARFSGSGSGTDFTLTIDPVEADDTATYFCQQSWYDPPTFGGGTKLELK
B19: BEW-1B4-C4 (antibody, IgG2b, V domains shown)
VH: QIQLVQSGPELKKPGESVKISCKASGYSFTNYGMYWVKQAPGQGLQYMGWIDTETGKPTYTDDFKGRFVFFLETSASTAYLQINNLKNEDMATYFCARWSGDTAGIRGPWFAYWGQGTLVTVSS
VL: DIRMTQSPASLSASLGETVNIECLASEDIYSDLAWYQQKPGKSPQLLIYNANDLQKGVPSRFSGSGSGTQYSLKINSLQSEDVATYFCQQYNYYPGTFGAGTKLELK
notes: Rat hybridoma monoclonal antibody
B20: BEW-9E10-E7 (antibody, IgG2a, V domains shown)
VH: B19 VH with V5L, S28T, K57R, T61A, A104T
VL: B19 VL with K42R, D53G, K56N, S63G, Y94F

biological target: recombinant human PDGF-BB (human, UniProt P01127 82-190); assay: cell-based or functional assay
Sequence (P01127 82-190 limits assumed): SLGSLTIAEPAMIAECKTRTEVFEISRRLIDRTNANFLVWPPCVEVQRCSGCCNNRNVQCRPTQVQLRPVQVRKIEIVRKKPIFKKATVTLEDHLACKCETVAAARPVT

Row | hPDGF-BB IC50 (nM), hPDGF-BB-induced NIH-3T3 cell proliferation [nM] | Binder
1 | 0.183 | B1
2 | 0.659 | B2
3 | 0.571 | B3
4 | 0.335 | B4

biological target: T1, Human VEGF-A 165 (human, UniProt P15692 207-395); assay: Biacore SPR (Example 1.1)
T1 construct: also called hVEGF165; huVEGF-A165
T1 sequence (P15692 other isoform, or with tags, fused parts or gaps limits assumed): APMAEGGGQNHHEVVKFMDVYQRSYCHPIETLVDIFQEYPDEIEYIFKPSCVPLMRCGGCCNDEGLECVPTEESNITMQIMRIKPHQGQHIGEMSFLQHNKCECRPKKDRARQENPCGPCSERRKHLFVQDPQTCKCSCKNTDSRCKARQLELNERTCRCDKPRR
Procedure: Unreacted moieties on the biosensor surface were blocked with ethanolamine. For kinetic analysis, rate equations derived from the 1:1 Langmuir binding model were fitted simultaneously to multiple antigen injections (using global fit analysis) with the use of Scrubber 2 (BioLogic Software), Biacore Biaevaluation 4.0.1 software or Biacore T100 Evaluation software. Purified antibodies or DVD-Ig molecules were diluted in running buffer for capture across goat anti-human Fc reaction surfaces. Antibodies or DVD-Ig molecules to be captured as a ligand (1 μg/ml) were injected over reaction matrices at a flow rate of 10 μl/minute. During the assay, all measurements were referenced against the capture surface alone (i.e., with no captured antibody or DVD-Ig molecule). […] The equilibrium dissociation constant KD (M) of the reaction between antibodies and the target antigen was then calculated from the kinetic rate constants by the following formula: KD=Koff/Kₒₙ. Binding was recorded as a function of time and kinetic rate constants were calculated. In this assay, on-rates as fast as 10⁶M⁻¹s⁻¹ and off-rates as slow as 10⁻⁶ s⁻¹ could be measured. […]

Row | Kd | kon | Binder
5 | 0.011 nM | 2.4e+07 M⁻¹ s⁻¹ | B5
6 | 0.012 nM | 6.9e+06 M⁻¹ s⁻¹ | B6
7 | 0.017 nM | 6.9e+06 M⁻¹ s⁻¹ | B7
8 | ≤ 0.00081 nM and 0.0012 nM | ≥ 1e+07 M⁻¹ s⁻¹ and 1.4e+07 M⁻¹ s⁻¹ | B8
9 | 0.06 nM | 1.8e+07 M⁻¹ s⁻¹ | B9
10 | 0.00096 nM | 7.4e+06 M⁻¹ s⁻¹ | B10
11 | 0.14 nM | 1e+07 M⁻¹ s⁻¹ | B11
12 | 0.016 nM | 4.4e+06 M⁻¹ s⁻¹ | B12
13 | ≤ 0.00018 nM | 5.5e+06 M⁻¹ s⁻¹ | B13
14 | 0.014 nM | 7e+06 M⁻¹ s⁻¹ | B14
15 | 0.0043 nM | 5.9e+06 M⁻¹ s⁻¹ | B15
16 | 0.01 nM | 1.4e+07 M⁻¹ s⁻¹ | B16
17 | 0.014 nM | 6.7e+06 M⁻¹ s⁻¹ | B17
18 | 0.0039 nM | 1.2e+07 M⁻¹ s⁻¹ | B18
19 | 0.0074 nM | 1.8e+07 M⁻¹ s⁻¹ | B19
20 | 0.0031 nM | 1.3e+07 M⁻¹ s⁻¹ | B20
